Experimental data published in patent publication CN106892979A.

Assays:
Assay in all cases: cell-based or functional assay
[1] = molecular target: H7N9病毒Nanjing-06病毒株 (H7N9病毒)
[2] = molecular target: H7N9病毒Suzhou-03病毒株 (H7N9病毒)
[3] = molecular target: H7N9病毒Wuxi-01病毒株 (H7N9病毒)
[4] = molecular target: H7N9病毒Wuxi-02病毒株 (H7N9病毒)

B1: 全人源抗H7N9病毒的单克隆中和抗体mAb635 (antibody, V domains shown)
VH: TGVHSQVQLVQSGAEVKKPGASVKISCKASGYSFTNYTLHWVRQAPGQRLEWMGWINAGNGNTRYSQKFQARVTITRDTSASTGYMEVSSLRSEDTAVYYCARGAYYGFWNGHYMGDDDNYYYGMGVWGQGPRSPSPQRR
VL: TGSLSQPVLTQPPSVSVSPGQTASITCSGDKLGDKYACWYQQKPGQSPVQVIYQDTKRPSGIPERFSGSNSGDTATLTISGTQSVDEADYYCQAWDSSRDVVFGGGTKLTVLGQPKAAPSVTLFPTLE
**Q.** What does the source list for B1?
**A.** 中和100×TCID50病毒需要的抗体量 [1]: 80 ng; 中和100×TCID50病毒需要的抗体量 [2]: 80 ng; 中和100×TCID50病毒需要的抗体量 [3]: 160 ng; 中和100×TCID50病毒需要的抗体量 [4]: 320 ng
